Experimental data taken from US11274129B2, “Methods for protein tyrosine phosphorylation profiling with variant SH2 domains” (priority 2016, dated 2022).

Tested on: pTyr-including peptides from pervanadate-treated Jurkat cells
Experiment: Enrichment of pTyr-including peptides from pervanadate-treated Jurkat cells by affinity reagents, 1D LC-MS/MS
Parameters: species or system human
Conditions: 3 mg Jurkat peptides
Description: Experiments were conducted to determine the relative efficacy of the variant Src SH2 domains and commonly used anti-pTyr antibodies as affinity reagents for pTyr-including peptides from biological samples. His6/GST-tagged TrM Src SH2 domain (SEQ ID NO: 11) and His6-tagged QuadM Src SH2 domain (SEQ ID NO: 13), as well as anti-pTyr antibodies, were prepared in functionally-equivalent molar amounts by using half the molar amount of the antibodies relative to the SH2 domain variants given that each antibody molecule has two binding sites for its antigen.
The first experiment tested the relative ability of the following affinity reagents to extract pTyr-including peptides from a peptide mixture prepared from Jurkat cells: a His6/GST-tagged TrM Src SH2 (SEQ ID NO: 11), a His6-tagged QuadM Src SH2 (SEQ ID NO: 13), the anti-pTyr antibody 4G10 (agarose conjugate, obtained from Millipore), and a mixture of commercially-available anti-pTyr antibodies. […] The two SH2 affinity reagents were also tested at a 30× amount; the antibodies were not tested at a 30× amount due to the prohibitive cost of doing so. The purified SH2 affinity reagents were prepared as described in Example 1. The antibody mixture contained 4G10 (as above), PY99 (obtained from Santa Cruz Biotechnology), and P-Tyr-100 (slurry of PTMScan® Phospho-Tyrosine Mouse mAb, obtained from Cell Signaling Technology). Since the concentration of P-Tyr-100 is unknown, the amount was used as recommended by the vendor (i.e., 4 μL for 1 mg peptide digest).
FIG. 2A presents a schematic of the experimental design. Each amount of His6-tagged SH2 domain variant or antibody was subjected to a binding experiment with 3 mg of a peptide mixture prepared from pervanadate-treated Jurkat cells.
Jurkat cells (obtained from ATCC) were cultured in a humidified atmosphere of 5% CO2 at 37° C. in Roswell Park Memorial Institute 1640 medium (RPMI-1640) supplemented with 10% bovine serum and 100 U/mL of streptomycin and penicillin.
The cells were again collected by centrifugation. The cell pellets were gently homogenized in an ice-cold lysis buffer containing 8 M urea, 50 mM tris(hydroxymethyl)aminomethane (Tris)-HCl (pH 7.4), 2% protease inhibitor cocktail (v/v, obtained from Sigma-Aldrich), 1% Triton X-100 (v/v), 1 mM NaF, and 1 mM Na3VO4, followed by sonication at 400 W for 120 s. After centrifugation at 25,000 g for 1 h, proteins were precipitated in ice-cold acetone/ethanol/acetic acid (50/50/0.1, V/V/V) solution. Subsequently, the proteins were diluted in reducing buffer containing 100 mM triethylammonium bicarbonate (TEAB) buffer (pH 8.2) and 8 M urea, and the final protein concentration was determined by Bradford assay. The protein suspension was reduced in 10 mM dithiothreitol (DTT) at 37° C. for 2 h, and it was then alkylated in 20 mM iodoacetamide (IAA) in darkness at room temperature for another 30 min. Trypsin digestion was performed at 37° C. overnight with an enzyme-to-protein ratio of 1/25 (w/w). The resulting peptide mixture was stored at −80° C. for further analysis.
Desalted Jurkat peptides (30 mg) were dissolved in ice-cold immunoaffinity purification (IAP) buffer and then split into 10 aliquots with 3 mg of Jurkat peptides each. Binding experiments were performed with the amounts of antibody (1×, 5×) or SH2 domain variant (1×, 5×, 30×) set out in Table 1 and FIG. 2A.
For antibody-based enrichment, 4G10 or the antibody mixture was incubated with the sample at 4° C. overnight while rotating. The beads were washed three times with ice-cold IAP buffer and twice with ice-cold water. To release the bound peptides, the beads were eluted twice with 200 μL 0.15% trifluoroacetic acid (TFA) for 15 min at room temperature.
For SH2-based enrichment, Ni-NTA beads containing the purified SH2 proteins were washed extensively in twenty column volumes of PBS buffer (pH 7.0) containing 20 mM imidazole. […] The washed beads were incubated with the peptide mixture at 4° C. overnight while rotating. […]

B1: Triple mutant: TrM human Src SH2 domain variant with Thr183Val, Cys188Ala and Lys206Leu; His6/GST-tagged form SEQ ID NO: 11 (protein)
chain: DSIQAEEWYFGKITRRESERLLLNAENPRGTFLVRESETVKGAYALSVSDFDNAKGLNVKHYLIRKLDSGGFYITSRTQFNSLQQLVAYYSKHADGLCHRLTTVCPTSK
modifications: SH2 protein domain; TrM human Src SH2 domain
- Number of pTyr sites identified (0.375 nmol (1x) pTyr-binding sites): 578
- Number of pTyr sites identified (1.875 nmol (5x) pTyr-binding sites): 1060
- Number of pTyr sites identified (11.25 nmol (30x) pTyr-binding sites): 1165
